In patent US20250177445A1 (A2 BIOTHERAPEUTICS, published 2025):

Molecular target: HLA-E*01:03 expressed on HLA-E knockout HeLa cells by mRNA transfection (human, UniProt P13747 22-358)
Experiment: cell-based or functional assay

B1: HLA-E activator receptor (third generation CAR: HLA-E scFv, CD8 hinge, CD28 transmembrane domain, CD28/41BB/CD3 intracellular domain) (receptor)
chain: QVQLRESGPSLVKPSQTLSLTCTVSGFSLTSYGVHWVRQPPGKGLEWLGVIWTGGTTNYNTALMSRLSITKDNSKSQVFLKMNSLQTDDTAIYYCARDGDSYNREAWFAYWGQGTLVTVSAGGGGSGGGGSGGGGSGGQIVLTQSPAVISASPGEKVILTCSASSSVSYMHWFQQKPGTSPKLWIYGTSNLASGVPARFSGGGSGTSYSLTISRMEAEDAATYYCQQRSRYPFTFGSGTKLEIKTTTPAPRPPTPAPTIASQPLSLRPEACRPAAGGAVHTRGLDFACDFWVLVVVGGVLACYSLLVTVAFIIFWVRSKRSRLLHSDYMNMTPRRPGPTRKHYQPYAPPRDFAAYRSKRGRKKLLYIFKQPFMRPVQTTQEEDGCSCRFPEEEEGGCELRVKFSRSADAPAYKQGQNQLYNELNLGRREEYDVLDKRRGRDPEMGGKPRRKNPQEGLYNELQKDKMAEAYSEIGMKGERRRGKGHDGLYQGLSTATKDTYDALHMQALPPR
EC50 of specific killing of HeLa cells by primary T cells: ~10000 HLA-E molecules
